The binders below were run against T1, human VEGF165 ligand (human, UniProt P15692-4 27-191) (assay: serial dilution mixed with 50 pM human VEGF165 in solution, unbound VEGF165 measured by ELISA).
T1 construct: also called VEGF-A165
Protocol: The amount of unbound VEGF₁₆₅ was then measured by a human VEGF-specific ELISA (Human VEGF DuoSet ELISA kit, R&D Systems, CAT. No. DY293B-05).
Unbound human VEGF₁₆₅ or PDGF-BB was calculated using 4 parameters curve with the absorbance value. And the IC₅₀ of the tested fusion proteins and the reference was calculated using 4 parameters curve with unbound human VEGF₁₆₅ or PDGF-BB.

T1 sequence (P15692 other isoform, or with tags, fused parts or gaps limits assumed): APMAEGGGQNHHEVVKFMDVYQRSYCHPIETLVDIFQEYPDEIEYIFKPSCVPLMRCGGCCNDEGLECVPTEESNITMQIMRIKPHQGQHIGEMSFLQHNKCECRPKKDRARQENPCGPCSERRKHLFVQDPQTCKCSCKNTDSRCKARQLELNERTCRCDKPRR

| Binder | IC50 [nM] |
| --- | --- |
| PDGFRαD123-PAS(300)-VEGFR1D2/R2D3 (receptor, Expressed in CHO-3E7 cells, purified over a Ni column; also called EPS1103P) QLSLPSILPNENEKVVQLNSSFSLRCFGESEVSWQYPMSEEESSDVEIRNEENNSGLFVTVLEVSSASAAHTGLYTCYYNHTQTEENELEGRHIYIYVPDPDVAFVPLGMTDYLVIVEDDDSAIIPCRTTDPETPVTLHNSEGVVPASYDSRQGFNGTFTVGPYICEATVKGKKFQTIPFNVYALKATSELDLEMEALKTVYKSGETIVVTCAVFNNEVVDLQWTYPGEVKGKGITMLEEIKVPSIKLVYTLTVPEATVKDSGDYECAARQATREVKEMKKVTISVHEKGASPAAPAPASPAAPAPSAPAASPAAPAPASPAAPAPSAPAASPAAPAPASPAAPAPSAPAASPAAPAPASPAAPAPSAPAASPAAPAPASPAAPAPSAPAASPAAPAPASPAAPAPSAPAASPAAPAPASPAAPAPSAPAASPAAPAPASPAAPAPSAPAASPAAPAPASPAAPAPSAPAASPAAPAPASPAAPAPSAPAASPAAPAPASPAAPAPSAPAASPAAPAPASPAAPAPSAPAASPAAPAPASPAAPAPSAPAASPAAPAPASPAAPAPSAPAASPAAPAPASPAAPAPSAPASDTGRPFVEMYSEIPEIIHMTEGRELVIPCRVTSPNITVTLKKFPLDTLIPDGKRIIWDSRKGFIISNATYKEIGLLTCEATVNGHLYKTNYLTHRQTNTIIDVVLSPSHGIELSVGEKLVLNCTARTELNVGIDFNWEYPSSKHQHKKLVNRDLKTQSGSEMKKFLSTLTIDGVTRSDQGLYTCAASSGLMTKKNSTFVRVHEKHHHHHH | 0.869 |
| PDGFRαD123-PAS(600)-VEGFR1D2/R2D3 (receptor, also called EPS1113P) QLSLPSILPNENEKVVQLNSSFSLRCFGESEVSWQYPMSEEESSDVEIRNEENNSGLFVTVLEVSSASAAHTGLYTCYYNHTQTEENELEGRHIYIYVPDPDVAFVPLGMTDYLVIVEDDDSAIIPCRTTDPETPVTLHNSEGVVPASYDSRQGFNGTFTVGPYICEATVKGKKFQTIPFNVYALKATSELDLEMEALKTVYKSGETIVVTCAVFNNEVVDLQWTYPGEVKGKGITMLEEIKVPSIKLVYTLTVPEATVKDSGDYECAARQATREVKEMKKVTISVHEKGASPAAPAPASPAAPAPSAPAASPAAPAPASPAAPAPSAPAASPAAPAPASPAAPAPSAPAASPAAPAPASPAAPAPSAPAASPAAPAPASPAAPAPSAPAASPAAPAPASPAAPAPSAPAASPAAPAPASPAAPAPSAPAASPAAPAPASPAAPAPSAPAASPAAPAPASPAAPAPSAPAASPAAPAPASPAAPAPSAPAASPAAPAPASPAAPAPSAPAASPAAPAPASPAAPAPSAPAASPAAPAPASPAAPAPSAPAASPAAPAPASPAAPAPSAPAASPAAPAPASPAAPAPSAPAASPAAPAPASPAAPAPSAPAASPAAPAPASPAAPAPSAPAASPAAPAPASPAAPAPSAPAASPAAPAPASPAAPAPSAPAASPAAPAPASPAAPAPSAPAASPAAPAPASPAAPAPSAPAASPAAPAPASPAAPAPSAPAASPAAPAPASPAAPAPSAPAASPAAPAPASPAAPAPSAPAASPAAPAPASPAAPAPSAPAASPAAPAPASPAAPAPSAPAASPAAPAPASPAAPAPSAPAASPAAPAPASPAAPAPSAPAASPAAPAPASPAAPAPSAPAASPAAPAPASPAAPAPSAPAASDTGRPFVEMYSEIPEIIHMTEGRELVIPCRVTSPNITVTLKKFPLDTLIPDGKRIIWDSRKGFIISNATYKEIGLLTCEATVNGHLYKTNYLTHRQTNTIIDVVLSPSHGIELSVGEKLVLNCTARTELNVGIDFNWEYPSSKHQHKKLVNRDLKTQSGSEMKKFLSTLTIDGVTRSDQGLYTCAASSGLMTKKNSTFVRVHEKHHHHHH | 0.646 |
| PDGFRαD123-(GGGGS)3-PAS(600)-(GGGGS)3-VEGFR1D2/R2D3 (receptor, also called EPS1114P) QLSLPSILPNENEKVVQLNSSFSLRCFGESEVSWQYPMSEEESSDVEIRNEENNSGLFVTVLEVSSASAAHTGLYTCYYNHTQTEENELEGRHIYIYVPDPDVAFVPLGMTDYLVIVEDDDSAIIPCRTTDPETPVTLHNSEGVVPASYDSRQGFNGTFTVGPYICEATVKGKKFQTIPFNVYALKATSELDLEMEALKTVYKSGETIVVTCAVFNNEVVDLQWTYPGEVKGKGITMLEEIKVPSIKLVYTLTVPEATVKDSGDYECAARQATREVKEMKKVTISVHEKGGGGGSGGGGSGGGGSASPAAPAPASPAAPAPSAPAASPAAPAPASPAAPAPSAPAASPAAPAPASPAAPAPSAPAASPAAPAPASPAAPAPSAPAASPAAPAPASPAAPAPSAPAASPAAPAPASPAAPAPSAPAASPAAPAPASPAAPAPSAPAASPAAPAPASPAAPAPSAPAASPAAPAPASPAAPAPSAPAASPAAPAPASPAAPAPSAPAASPAAPAPASPAAPAPSAPAASPAAPAPASPAAPAPSAPAASPAAPAPASPAAPAPSAPAASPAAPAPASPAAPAPSAPAASPAAPAPASPAAPAPSAPAASPAAPAPASPAAPAPSAPAASPAAPAPASPAAPAPSAPAASPAAPAPASPAAPAPSAPAASPAAPAPASPAAPAPSAPAASPAAPAPASPAAPAPSAPAASPAAPAPASPAAPAPSAPAASPAAPAPASPAAPAPSAPAASPAAPAPASPAAPAPSAPAASPAAPAPASPAAPAPSAPAASPAAPAPASPAAPAPSAPAASPAAPAPASPAAPAPSAPAASPAAPAPASPAAPAPSAPAASPAAPAPASPAAPAPSAPAASPAAPAPASPAAPAPSAPAASPAAPAPASPAAPAPSAPAAGGGGSGGGGSGGGGSSDTGRPFVEMYSEIPEIIHMTEGRELVIPCRVTSPNITVTLKKFPLDTLIPDGKRIIWDSRKGFIISNATYKEIGLLTCEATVNGHLYKTNYLTHRQTNTIIDVVLSPSHGIELSVGEKLVLNCTARTELNVGIDFNWEYPSSKHQHKKLVNRDLKTQSGSEMKKFLSTLTIDGVTRSDQGLYTCAASSGLMTKKNSTFVRVHEKHHHHHH | 0.506 |
| PAS(200)-VEGFR1D2/R2D3-PDGFRαD123 (receptor, the tag stands at the N-terminus; also called EPS1109P) HHHHHHASPAAPAPASPAAPAPSAPAASPAAPAPASPAAPAPSAPAASPAAPAPASPAAPAPSAPAASPAAPAPASPAAPAPSAPAASPAAPAPASPAAPAPSAPAASPAAPAPASPAAPAPSAPAASPAAPAPASPAAPAPSAPAASPAAPAPASPAAPAPSAPAASPAAPAPASPAAPAPSAPAASPAAPAPASPAAPAPSAPASDTGRPFVEMYSEIPEIIHMTEGRELVIPCRVTSPNITVTLKKFPLDTLIPDGKRIIWDSRKGFIISNATYKEIGLLTCEATVNGHLYKTNYLTHRQTNTIIDVVLSPSHGIELSVGEKLVLNCTARTELNVGIDFNWEYPSSKHQHKKLVNRDLKTQSGSEMKKFLSTLTIDGVTRSDQGLYTCAASSGLMTKKNSTFVRVHEKQLSLPSILPNENEKVVQLNSSFSLRCFGESEVSWQYPMSEEESSDVEIRNEENNSGLFVTVLEVSSASAAHTGLYTCYYNHTQTEENELEGRHIYIYVPDPDVAFVPLGMTDYLVIVEDDDSAIIPCRTTDPETPVTLHNSEGVVPASYDSRQGFNGTFTVGPYICEATVKGKKFQTIPFNVYALKATSELDLEMEALKTVYKSGETIVVTCAVFNNEVVDLQWTYPGEVKGKGITMLEEIKVPSIKLVYTLTVPEATVKDSGDYECAARQATREVKEMKKVTISVHEKG | 0.218 |

Further binders by falling IC50, results first:

| IC50 [nM] | Binder |
| --- | --- |
| 0.44 | VEGFR1D2/R2D3-(GGGGS)3-PAS(600)-(GGGGS)3-PDGFRαD123 (receptor, also called EPS1115P) SDTGRPFVEMYSEIPEIIHMTEGRELVIPCRVTSPNITVTLKKFPLDTLIPDGKRIIWDSRKGFIISNATYKEIGLLTCEATVNGHLYKTNYLTHRQTNTIIDVVLSPSHGIELSVGEKLVLNCTARTELNVGIDFNWEYPSSKHQHKKLVNRDLKTQSGSEMKKFLSTLTIDGVTRSDQGLYTCAASSGLMTKKNSTFVRVHEKGGGGSGGGGSGGGGSASPAAPAPASPAAPAPSAPAASPAAPAPASPAAPAPSAPAASPAAPAPASPAAPAPSAPAASPAAPAPASPAAPAPSAPAASPAAPAPASPAAPAPSAPAASPAAPAPASPAAPAPSAPAASPAAPAPASPAAPAPSAPAASPAAPAPASPAAPAPSAPAASPAAPAPASPAAPAPSAPAASPAAPAPASPAAPAPSAPAASPAAPAPASPAAPAPSAPAASPAAPAPASPAAPAPSAPAASPAAPAPASPAAPAPSAPAASPAAPAPASPAAPAPSAPAASPAAPAPASPAAPAPSAPAASPAAPAPASPAAPAPSAPAASPAAPAPASPAAPAPSAPAASPAAPAPASPAAPAPSAPAASPAAPAPASPAAPAPSAPAASPAAPAPASPAAPAPSAPAASPAAPAPASPAAPAPSAPAASPAAPAPASPAAPAPSAPAASPAAPAPASPAAPAPSAPAASPAAPAPASPAAPAPSAPAASPAAPAPASPAAPAPSAPAASPAAPAPASPAAPAPSAPAASPAAPAPASPAAPAPSAPAASPAAPAPASPAAPAPSAPAASPAAPAPASPAAPAPSAPAASPAAPAPASPAAPAPSAPAAGGGGSGGGGSGGGGSQLSLPSILPNENEKVVQLNSSFSLRCFGESEVSWQYPMSEEESSDVEIRNEENNSGLFVTVLEVSSASAAHTGLYTCYYNHTQTEENELEGRHIYIYVPDPDVAFVPLGMTDYLVIVEDDDSAIIPCRTTDPETPVTLHNSEGVVPASYDSRQGFNGTFTVGPYICEATVKGKKFQTIPFNVYALKATSELDLEMEALKTVYKSGETIVVTCAVFNNEVVDLQWTYPGEVKGKGITMLEEIKVPSIKLVYTLTVPEATVKDSGDYECAARQATREVKEMKKVTISVHEKGHHHHHH |
| 0.331 | PAS(200)-PDGFRαD123-VEGFR1D2/R2D3 (receptor, the tag stands at the N-terminus; also called EPS1110P) HHHHHHASPAAPAPASPAAPAPSAPAASPAAPAPASPAAPAPSAPAASPAAPAPASPAAPAPSAPAASPAAPAPASPAAPAPSAPAASPAAPAPASPAAPAPSAPAASPAAPAPASPAAPAPSAPAASPAAPAPASPAAPAPSAPAASPAAPAPASPAAPAPSAPAASPAAPAPASPAAPAPSAPAASPAAPAPASPAAPAPSAPAQLSLPSILPNENEKVVQLNSSFSLRCFGESEVSWQYPMSEEESSDVEIRNEENNSGLFVTVLEVSSASAAHTGLYTCYYNHTQTEENELEGRHIYIYVPDPDVAFVPLGMTDYLVIVEDDDSAIIPCRTTDPETPVTLHNSEGVVPASYDSRQGFNGTFTVGPYICEATVKGKKFQTIPFNVYALKATSELDLEMEALKTVYKSGETIVVTCAVFNNEVVDLQWTYPGEVKGKGITMLEEIKVPSIKLVYTLTVPEATVKDSGDYECAARQATREVKEMKKVTISVHEKGSDTGRPFVEMYSEIPEIIHMTEGRELVIPCRVTSPNITVTLKKFPLDTLIPDGKRIIWDSRKGFIISNATYKEIGLLTCEATVNGHLYKTNYLTHRQTNTIIDVVLSPSHGIELSVGEKLVLNCTARTELNVGIDFNWEYPSSKHQHKKLVNRDLKTQSGSEMKKFLSTLTIDGVTRSDQGLYTCAASSGLMTKKNSTFVRVHEK |

From patent publication US20210139559A1 (XL PROTEIN, published 2021)
